In publication PMC5481817, “Developing Targeted Hybrid Imaging Probes by Chelator Scaffolding” (Bioconjugate chemistry, 2017):
Where two headings read alike, the source gives them in different places.

Legend:
[1] = system: mice bearing U-87MG tumor xenografts; test: Static micro-PET/CT imaging, U-87MG xenografts; assay type: in vivo, mouse; details: static PET, 30 and 90 min p.i.
Procedure: All animal experiments were conducted in accordance with regulations and guidelines of the Czech Animal Protection Act (No. 246/1992), and with the approval of the Czech Ministry of Education, Youth, and Sports (MSMT-22421/2013–12), and the institutional Animal Welfare Committee of the Faculty of Medicine and Dentistry of Palacky University in Olomouc. The studies were performed using female 8–10-week-old athymic BALB/c nude mice (Envigo, Horst, The Netherlands). […]
Tumor xenografts were established near the front shoulder of mice by subcutaneous injection of 5 × 10^6 cells (U-87 MG) or 2 × 10^6 cells (A431-CCK2R) and the same amount of A431-mock cells as a control in 200 μL appropriate medium and Matrigel (1:1). […] Tumors, blood, muscle tissue, and organs were extracted, weighed, and activity uptake of the samples was measured in the gamma counter. Results were expressed as percentage of injected dose per gram tissue (% ID/g). […] After reconstruction, acquired data was viewed and analyzed with PMOD software (PMOD Technologies Ltd., Zurich, Switzerland). […] Near-infrared in vivo fluorescence imaging was performed with an In-Vivo MS FX PRO small animal imaging system (Bruker Biospin Corporation, Woodbridge, CT, USA). […] An appropriate filter set (excitation = 730 nm and emission = 790 nm) was used for acquiring the Sulfo-Cy7-FSC-peptide - fluorescence in vivo. […]

[2] = system: M21-L (αvβ3 negative) cells; test: M21-L internalization assay (radioligand); assay type: cell-based, human; details: for Cell uptake (internalized): M21-L (αvβ3 negative); for unspecific membrane bound activity: M21-L cells
Procedure: (§1) Integrin αvβ3 positive (M21) and αvβ3 negative (M21-L) cells were diluted with incubation medium, i.e., corresponding growth medium containing 1% glutamine (m/v), 1% BSA (m/v), CaCl2 (1 mM), MgCl2 (1 mM), and MnCl2 (10 mM) to a concentration of 2.0 × 10^6 cells/ml. Aliquots of one milliliter were transferred to Eppendorf tubes and six technical replicates for each cell line were incubated for 1 h at 37 °C. Subsequently 50 μL of the radiolabeled ligand (1.2 nM [^68Ga]Sulfo-Cy7-FSC-RGD in PBS/0.5% BSA, approximately 2 × 10^4 cpm) were added and incubated at 37 °C for further 60 and 120 min, respectively. After incubation the tubes were centrifuged (2 min, 5000 rpm; Eppendorf Centrifuge 5424, Hamburg, Germany) and the supernatant was removed and collected. Hereafter the cells were washed twice with 1 mL ice-cold washing buffer (10 mM TRIS-buffered saline, pH 7.3) and the fractions were combined with the supernatant (wash fraction). To determine the membrane bound tracer amount cells were washed two times with 1 mL acetate buffer (20 mM, pH 4.5, 10 min at 37 °C) and the supernatant was collected. The residual cells were lysed by adding 1 mL of 2 M NaOH twice and collected in plastic vials (internalized fraction). The activity of all collected vials was measured in the γ-counter and compared to standard solution (50 μL radiotracer).

[3] = assay type: physicochemical; details: pH 7.4
Procedure: (§2) [^68Ga]Sulfo-Cy7-FSC-MG and [^68Ga]Sulfo-Cy7-FSC-RGD (6 MBq) were diluted with phosphate buffered saline to a concentration of 1 μM. Subsequently 50 μL of this solution was added to six Eppendorf tubes containing 450 μL PBS and 500 μL octanol. The mixture was vortexed (1400 rpm) at RT for 15 min using a MS 3 basic vortexer (IKA, Staufen, Germany) followed by centrifugation for 2 min at 4500 rpm. Aliquots of 100 μL of both phases were transferred to plastic vials, measured in the γ-counter and logD values were calculated. For stability testing, radiolabeled tracers were diluted with 450 μL fresh human serum and 450 μL PBS as control to a concentration of 2 μM followed by incubation at 37 °C. After 1, 2, and 4 h (n = 3) 50 μL aliquots were precipitated with acetonitrile (1:1) and centrifuged for 2 min at 14 × 10^3 rpm. The supernatant was analyzed by radio-RP-HPLC to evaluate for decomposition and corresponding chromatograms are shown in Supporting Information. For protein binding measurement aliquots were analyzed by size exclusion chromatography using MicroSpin G-50 Columns (Sephadex G-50, GE Healthcare, Vienna, Austria) in triplicates. […] Column and eluate were measured in the γ-counter and percentages of nonprotein bound radiolabeled peptide (column) and protein bound radiotracer (eluate) were calculated.

[4] = physchem; assay type: physicochemical; details: buffer or solvent
Procedure: [^68Ga]Sulfo-Cy7-FSC-MG and [^68Ga]Sulfo-Cy7-FSC-RGD (6 MBq) were diluted with phosphate buffered saline to a concentration of 1 μM. Subsequently 50 μL of this solution was added to six Eppendorf tubes containing 450 μL PBS and 500 μL octanol. The mixture was vortexed (1400 rpm) at RT for 15 min using a MS 3 basic vortexer (IKA, Staufen, Germany) followed by centrifugation for 2 min at 4500 rpm. Aliquots of 100 μL of both phases were transferred to plastic vials, measured in the γ-counter and logD values were calculated. For stability testing, radiolabeled tracers were diluted with 450 μL fresh human serum and 450 μL PBS as control to a concentration of 2 μM followed by incubation at 37 °C. After 1, 2, and 4 h (n = 3) 50 μL aliquots were precipitated with acetonitrile (1:1) and centrifuged for 2 min at 14 × 10^3 rpm. The supernatant was analyzed by radio-RP-HPLC to evaluate for decomposition and corresponding chromatograms are shown in Supporting Information. For protein binding measurement aliquots were analyzed by size exclusion chromatography using MicroSpin G-50 Columns (Sephadex G-50, GE Healthcare, Vienna, Austria) in triplicates. First, the columns were centrifuged at 750 rcf for 1 min to remove the storage buffer. After adding 25 μL of incubation solution columns were centrifuged again for 2 min with 2000 rcf. Column and eluate were measured in the γ-counter and percentages of nonprotein bound radiolabeled peptide (column) and protein bound radiotracer (eluate) were calculated.

[5] = system: U-87MG (αvβ3 positive) xenograft bearing mice; details: mouse, in vivo, 1.5 h
Procedure: (§3) All animal experiments were conducted in accordance with regulations and guidelines of the Czech Animal Protection Act (No. 246/1992), and with the approval of the Czech Ministry of Education, Youth, and Sports (MSMT-22421/2013–12), and the institutional Animal Welfare Committee of the Faculty of Medicine and Dentistry of Palacky University in Olomouc. The studies were performed using female 8–10-week-old athymic BALB/c nude mice (Envigo, Horst, The Netherlands). The number of animals was reduced as much as possible (n = 3 per group and time point for all experiments) and retro-orbital (r.o.) tracer injection as well as small animal imaging was carried out under 2% isoflurane anesthesia (FORANE, Abbott Laboratories, Abbott Park, IL, USA) to minimize animal suffering.
(§4) Tumor xenografts were established near the front shoulder of mice by subcutaneous injection of 5 × 10^6 cells (U-87 MG) or 2 × 10^6 cells (A431-CCK2R) and the same amount of A431-mock cells as a control in 200 μL appropriate medium and Matrigel (1:1). The tumors were allowed to grow until they had reached a volume of 0.2 to 0.5 cm^3. To evaluate ex vivo biodistribution mice were injected with 1–2 MBq (0.05–0.14 nmol) of radiotracer per mouse and mice were sacrificed by cervical dislocation after 30 and 90 min for [^68Ga]Sulfo-Cy7-FSC-RGD and after 1 and 2 h in the case of [^68Ga]Sulfo-Cy7-FSC-MG. Tumors, blood, muscle tissue, and organs were extracted, weighed, and activity uptake of the samples was measured in the gamma counter. Results were expressed as percentage of injected dose per gram tissue (% ID/g). In vivo PET and CT images were acquired with an Albira PET/SPECT/CT small animal imaging system (Bruker Biospin Corporation, Wood-bridge, CT, USA). Xenograft bearing mice were injected with radiolabeled peptides in a dose of ~5 MBq corresponding to 1–2 μg (0.25–0.58 nmol) of peptide per mouse. Anaesthetized animals were positioned prone head first in the Albira system before the start of imaging. Static PET/CT imaging was carried out 30 and 90 min p.i. for [^68Ga]Sulfo-Cy7-FSC-RGD. Animals injected with [^68Ga]Sulfo-Cy7-FSC-MG were imaged 1 and 2 h p.i. A 10 min PET scan (axial FOV 148 mm) was performed, followed by a CT scan (axial FOV 65 mm, 45 kVp, 400 μA, at 400 projections). Scans were reconstructed with the Albira software (Bruker Biospin Corporation, Woodbridge, CT, USA) using the maximum likelihood expectation maximization (MLEM) and filtered backprojection (FBP) algorithms. After reconstruction, acquired data was viewed and analyzed with PMOD software (PMOD Technologies Ltd., Zurich, Switzerland). 3D images were obtained using VolView software (Kitware, Clifton Park, NY, USA). Near-infrared in vivo fluorescence imaging was performed with an In-Vivo MS FX PRO small animal imaging system (Bruker Biospin Corporation, Woodbridge, CT, USA). Sulfo-Cy7-FSC-MG and Sulfo-Cy7-FSC-RGD were injected in a dose of 0.25–0.58 nmol per mouse and after supine head first positioning, imaging was conducted in various time intervals up to 72 h p.i. An appropriate filter set (excitation = 730 nm and emission = 790 nm) was used for acquiring the Sulfo-Cy7-FSC-peptide - fluorescence in vivo. Identical illumination settings (acquisition time = 15 s, filters = 730/790 nm, f-stop = 2.8, field of view = 100 mm, and binning = 4 × 4) were used for acquiring all images, and fluorescence emission was normalized to photons/s/mm^2. Images were acquired and analyzed using Bruker MI SE software (Bruker Biospin Corporation, Woodbridge, CT, USA).

[6] = mouse, in vivo
Procedure: as §3, §4

[7] = system: M21 (αvβ3 positive) cells; test: M21 internalization assay (radioligand); assay type: cell-based, human; details: for Cell uptake (internalized): M21 (αvβ3 positive); for membrane bound amount of activity: M21 cells
Procedure: as §1

[8] = in vitro; assay type: in vitro ADME, human
Procedure: as §2

[9] = 87 mg, accumulation in tumor tissue

With `C/C1=C/C(=O)N(O)CCC[C@H](NC(=O)CCN2C(=O)CC(SCCOCCOCCOCCOCCC(=O)NCCCC[C@@H]3NC(=O)[C@@H](Cc4ccccc4)NC(=O)[C@H](CC(=O)O)NC(=O)CNC(=O)[C@H](CCCNC(=N)N)NC3=O)C2=O)C(=O)OCC/C(C)=C\C(=O)N(O)CCC[C@H](NC(=O)CCN2C(=O)CC(SCCOCCOCCOCCOCCC(=O)NCCCC[C@@H]3NC(=O)[C@@H](Cc4ccccc4)NC(=O)[C@H](CC(=O)O)NC(=O)CNC(=O)[C@H](CCCNC(=N)N)NC3=O)C2=O)C(=O)OCC/C(C)=C\C(=O)N(O)CCC[C@H](NC(=O)CCCCC[N+]2=C(C=CC3=CC(=CC=C4N(C)c5ccc(S(=O)(=O)[O-])cc5C4(C)C)CCC3)C(C)(C)c3cc(S(=O)(=O)O)ccc32)C(=O)OCC1` (stereo partly drawn) [[^68Ga]Sulfo-Cy7-FSC-RGD, metal not drawn] the PET tumor visualization [1] was “tumor was visualized clearly”, the “Cell uptake (internalized)” value ([2]; 1 h) was 0.43 ± 0.25% and the “Cell uptake (internalized)” value ([2]; 2 h) was 0.71 ± 0.66%. The “unspecific membrane bound activity” value ([2]; 1 h) was 0.29 ± 0.12%, the “unspecific membrane bound activity” value ([2]; 2 h) was 0.80 ± 0.62% and the “cell uptake on αvβ3 negative cells relative to αvβ3 positive cells (reduced to)” value ([2]; M21-L vs M21, 1 and 2 h) was “approximately 1/6”. For the same compound, the logD [3] was -2.3 ± 0.16, the remaining at 1 h, 2 μM [4] was 95.7 ± 0.1% and the remaining at 2 h, 2 μM [4] was 94.7 ± 0.6%. For the same compound, the remaining at 4 h, 2 μM [4] was 94.4 ± 0.3%, the kidney retention [5] was 57.3 ± 4.6 % ID/g and the tissue uptake at 0.5 h [6, 9] was 10.1 ± 0.8 %ID/g. For the same compound, the tissue uptake at 1.5 h [6, 9] was 7.5 ± 0.8 %ID/g, the tissue uptake at 0.5 h ([6]; blood) was 4 ± 0.4 %ID/g and the tissue uptake at 1.5 h ([6]; blood) was 1.3 ± 0.2 %ID/g. The tissue uptake at 1.5 h ([6]; kidney retention) was 54.8 ± 1.1 %ID/g, the “Cell uptake (internalized)” value ([7]; 1 h) was 2.45 ± 0.36% and the “Cell uptake (internalized)” value ([7]; 2 h) was 4.41 ± 1.17%. The “membrane bound amount of activity” value ([7]; 1 h) was 1.09 ± 0.23%, the “membrane bound amount of activity” value ([7]; 2 h) was 1.79 ± 0.59% and the “Binding to serum proteins” value [8] was “approximately 20%”.
